Test results taken from US20250382386A1 (KINTOR PHARMACEUTICAL GUANGDONG, published 2025).
Where two headings read alike, the source gives them in different places.

B1: Bevacizumab (antibody, V domains shown)
VH: EVQLVESGGGLVQPGGSLRLSCAASGYTFTNYGMNWVRQAPGKGLEWVGWINTYTGEPTYAADFKRRFTFSLDTSKSTAYLQMNSLRAEDTAVYYCAKYPHYYGSSHWYFDVWGQGTLVTVSS
VL: DIQMTQSPSSLSASVGDRVTITCSASQDISNYLNWYQQKPGKAPKVLIYFTSSLHSGVPSRFSGSGSGTDFTLTISSLQPEDFATYYCQQYSTVPWTFGQGTKVEIK
notes: Bought control antibody (Biointron, B7424); also called Avastin; VEGF-A monoclonal antibody (Bevacizumab)
B2: anti-ALK-1 antibody #1 (antibody, human IgG1, kappa, L234A L235A, V domains shown)
VH: QVQLQESGPGLVKPSQTLSLTCTVSGGSISSGEYYWNWIRQHPGKGLEWIGYIYYSGSTYYNPSLKSRVTISVDTSKNQFSLKLSSVTAADTAVYYCARESVAGFDYWGQGTLVTVSS
VL: EIVLTQSPGTLSLSPGERATLSCRASQSVSSSYLAWYQQKPGQAPRLLIYGTSSRATGIPDRFSGSGSGTDFTLTISRLEPEDFAVYYCQGYGSFPITFGQGTRLEIKR
B3: anti-ALK-1 antibody #12 (antibody, human IgG1, kappa, L234A L235A, V domains shown)
VH: QVQLQESGPGLVKPSQTLSLTCTVSGGSISSGEYYWNWIRQHPGKGLEWIGYIYYSGSTYYNPSLKSRVTISVDTSKNQFSLKLSSVTAADTAVYYCARESVAGFDYWGQGTLVTVSS
VL: EIVLTQSPGTLSLSPGERATLSCRASQSVSSSYLAWYQQKPGQAPRLLIYGTSSRATGIPDRFSGSGSGTDFTLTISRLEPEDFAVYYCQIYGSIPITFGQGTRLEIKR
B4: anti-ALK-1 antibody #18 (antibody, human IgG1, kappa, L234A L235A, V domains shown)
VH: QVQLQESGPGLVKPSQTLSLTCTVSGGSISSGEYYWNWIRQHPGKGLEWIGYIYYSGSTYYNPSLKSRVTISVDTSKNQFSLKLSSVTAADTAVYYCARESVAGFDYWGQGTLVTVSS
VL: EIVLTQSPGTLSLSPGERATLSCRASQSVSSSYLAWYQQKPGQAPRLLIYGTSSRATGIPDRFSGSGSGTDFTLTISRLEPEDFAVYYCQAYGSWPITFGQGTRLEIKR
notes: the rest as BM; also called #18 mutant; ALK-1 mAb (#18 mutant)
B5: anti-ALK-1 antibody #9 (antibody, human IgG1, kappa, L234A L235A, V domains shown)
VH: QVQLQESGPGLVKPSQTLSLTCTVSGGSISSGEYYWNWIRQHPGKGLEWIGYIYYSGSTYYNPSLKSRVTISVDTSKNQFSLKLSSVTAADTAVYYCARESVAGFDYWGQGTLVTVSS
VL: EIVLTQSPGTLSLSPGERATLSCRASQSVSSSYLAWYQQKPGQAPRLLIYGTSSRATGIPDRFSGSGSGTDFTLTISRLEPEDFAVYYCQIYGSWPITFGQGTRLEIKR
B6: anti-ALK-1 antibody #3 (antibody, human IgG1, kappa, L234A L235A, V domains shown)
VH: QVQLQESGPGLVKPSQTLSLTCTVSGGSISSGEYYWNWIRQHPGKGLEWIGYIYYSGSTYYNPSLKSRVTISVDTSKNQFSLKLSSVTAADTAVYYCARESVAGFDYWGQGTLVTVSS
VL: EIVLTQSPGTLSLSPGERATLSCRASQSVSSSYLAWYQQKPGQAPRLLIYGTSSRATGIPDRFSGSGSGTDFTLTISRLEPEDFAVYYCQLYGSFPITFGQGTRLEIKR
B7: anti-ALK-1 antibody #28 (antibody, human IgG1, kappa, L234A L235A, V domains shown)
VH: QVQLQESGPGLVKPSQTLSLTCTVSGGSISSGEYYWNWIRQHPGKGLEWIGYIYYSGSTYYNPSLKSRVTISVDTSKNQFSLKLSSVTAADTAVYYCARESVAGFDYWGQGTLVTVSS
VL: EIVLTQSPGTLSLSPGERATLSCRASQSVSSSYLAWYQQKPGQAPRLLIYGTSSRATGIPDRFSGSGSGTDFTLTISRLEPEDFAVYYCQIYGSVPITFGQGTRLEIKR
B8: anti-ALK-1 antibody #27 (antibody, human IgG1, kappa, L234A L235A, V domains shown)
VH: QVQLQESGPGLVKPSQTLSLTCTVSGGSISSGEYYWNWIRQHPGKGLEWIGYIYYSGSTYYNPSLKSRVTISVDTSKNQFSLKLSSVTAADTAVYYCARESVAGFDYWGQGTLVTVSS
VL: EIVLTQSPGTLSLSPGERATLSCRASQSVSSSYLAWYQQKPGQAPRLLIYGTSSRATGIPDRFSGSGSGTDFTLTISRLEPEDFAVYYCQGYGSWPITFGQGTRLEIKR
B9: anti-ALK-1 antibody #26 (antibody, human IgG1, kappa, L234A L235A, V domains shown)
VH: QVQLQESGPGLVKPSQTLSLTCTVSGGSISSGEYYWNWIRQHPGKGLEWIGYIYYSGSTYYNPSLKSRVTISVDTSKNQFSLKLSSVTAADTAVYYCARESVAGFDYWGQGTLVTVSS
VL: EIVLTQSPGTLSLSPGERATLSCRASQSVSSSYLAWYQQKPGQAPRLLIYGTSSRATGIPDRFSGSGSGTDFTLTISRLEPEDFAVYYCQVYGSVPITFGQGTRLEIKR
B10: anti-ALK-1 antibody #19 (antibody, human IgG1, kappa, L234A L235A, V domains shown)
VH: QVQLQESGPGLVKPSQTLSLTCTVSGGSISSGEYYWNWIRQHPGKGLEWIGYIYYSGSTYYNPSLKSRVTISVDTSKNQFSLKLSSVTAADTAVYYCARESVAGFDYWGQGTLVTVSS
VL: EIVLTQSPGTLSLSPGERATLSCRASQSVSSSYLAWYQQKPGQAPRLLIYGTSSRATGIPDRFSGSGSGTDFTLTISRLEPEDFAVYYCQFYGSWPITFGQGTRLEIKR
B11: anti-ALK-1 antibody #25 (antibody, human IgG1, kappa, L234A L235A, V domains shown)
VH: QVQLQESGPGLVKPSQTLSLTCTVSGGSISSGEYYWNWIRQHPGKGLEWIGYIYYSGSTYYNPSLKSRVTISVDTSKNQFSLKLSSVTAADTAVYYCARESVAGFDYWGQGTLVTVSS
VL: EIVLTQSPGTLSLSPGERATLSCRASQSVSSSYLAWYQQKPGQAPRLLIYGTSSRATGIPDRFSGSGSGTDFTLTISRLEPEDFAVYYCQVYGSWPITFGQGTRLEIKR
B12: anti-ALK-1 antibody #14 (antibody, human IgG1, kappa, L234A L235A, V domains shown)
VH: QVQLQESGPGLVKPSQTLSLTCTVSGGSISSGEYYWNWIRQHPGKGLEWIGYIYYSGSTYYNPSLKSRVTISVDTSKNQFSLKLSSVTAADTAVYYCARESVAGFDYWGQGTLVTVSS
VL: EIVLTQSPGTLSLSPGERATLSCRASQSVSSSYLAWYQQKPGQAPRLLIYGTSSRATGIPDRFSGSGSGTDFTLTISRLEPEDFAVYYCQMYGSWPITFGQGTRLEIKR

Legend:
[1] = target: T1, human ALK-1 on cells (CHO-K1-hALK-1 cells; HUVEC; A172) (human, UniProt P37023 22-503); test: flow cytometry on CHO-K1-hALK-1 cells, MFI
T1 construct: whole, on cells; One entry is used for ALK-1 on the transfected CHO-K1 line and on HUVEC/A172 cells; also called CHO-K1-ALK-1 cells; CHO-K1-ALK1 cells

[2] = target: T1, human ALK-1 on cells (CHO-K1-hALK-1 …); test: cell-based or functional assay
[3] = target: T1, human ALK-1 on cells (CHO-K1-hALK-1 …); test: cell-based or functional assay; remark: listed apart in the source
[4] = target: T1, human ALK-1 on cells (CHO-K1-hALK-1 …); test: flow cytometry on CHO-K1-hALK-1 cells ('Binding affinity to CHO-ALK1'), MFI; method as for FIG. 3
[5] = target: T1, human ALK-1 on cells (CHO-K1-hALK-1 …); test: cell-based or functional assay; remark: listed apart in the source
[6] = target: T1, human ALK-1 on cells (CHO-K1-hALK-1 …); test: flow cytometry on CHO-K1-hALK-1 cells, MFI; VEGF 165-biotin and APC-anti-human IgG mAb added after the antibody
[7] = target: T1, human ALK-1 on cells (CHO-K1-hALK-1 …); test: cell-based or functional assay; remark: listed apart in the source
[8] = target: T1, human ALK-1 on cells (CHO-K1-hALK-1 …); test: cell-based or functional assay; remark: listed apart in the source
[9] = target: T1, human ALK-1 on cells (CHO-K1-hALK-1 …); test: flow cytometry on CHO-K1-ALK-1 cells, MFI; detection with human PD-1-PE and PE anti-human IgG Fc antibody 'respectively'

Binder	IC50 of blocking BMP9-induced Smad1 phosphorylation in HUVEC cells (ELISA kit) [2]	further results
B1		binding result [1]: no binding (tested: about 50 nM)
B2	5.8 nM	
B3	11.2 nM	
B4	8.2 nM	IC50; blocking of BMP9-induced Smad1 phosphorylation, pSmad1 ELISA assay in HUVEC, OD450 [3]: 26.3 nM; EC50 [4]: 0.447 nM; IC50; blocking of BMP9-induced Smad1 phosphorylation, pSmad1 ELISA assay in A172 cell line, OD 450 [5]: 2.39 nM; EC50 [6]: 1.85 nM; IC50; blocking of BMP9-induced Smad1 phosphorylation, pSmad1 ELISA assay in HUVEC, OD450 [7]: 20.9 nM; IC50; blocking of BMP9-induced Smad1 phosphorylation, pSmad1 ELISA assay in A172 cell line (right panel), OD 450 [8]: 2.39 nM; IC50; blocking of BMP9-induced Smad1 phosphorylation, pSmad1 ELISA assay in HUVEC (left panel), OD 450 [8]: 26.3 nM; EC50 [9]: 1.85 nM
B5	11.6 nM	
B6	5.3 nM	
B7	6.9 nM	
B8	6.3 nM	
B9	12.4 nM	
B10	5.2 nM	
B11	9.1 nM	
B12	11.1 nM	
